Target: PCBP2 (poly(C)-binding protein 2, hnRNP E2) (UniProt Q15366)
Assay: EMSA
Settings: EMSA: 25 mM NaH2PO4 pH 8.0, 50 mM NaCl, 25 mM KCl, 2.5 mM MgCl2, 10 mM imidazole, 0.5 mM DTT, 0.5 mM PMSF, 7% glycerol, 0.5 U/uL RNasin, 75 ng/uL BSA …

Chain of PCBP2 (poly(C)-binding protein 2, hnRNP E2) (Q15366 whole entry): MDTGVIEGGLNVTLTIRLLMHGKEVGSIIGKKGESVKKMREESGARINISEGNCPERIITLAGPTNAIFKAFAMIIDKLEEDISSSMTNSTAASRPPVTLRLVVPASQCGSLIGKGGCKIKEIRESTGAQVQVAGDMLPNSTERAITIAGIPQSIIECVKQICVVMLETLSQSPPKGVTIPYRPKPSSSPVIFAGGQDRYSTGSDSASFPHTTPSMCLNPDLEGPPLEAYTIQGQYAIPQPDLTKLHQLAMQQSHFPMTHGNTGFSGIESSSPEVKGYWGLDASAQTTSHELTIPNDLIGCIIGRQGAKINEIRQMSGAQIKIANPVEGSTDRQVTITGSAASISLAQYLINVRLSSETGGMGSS

With “GGUCAUGGCGACUGUCCAGCUUUGUGCCAGGAGCCUCGCAGGGGUUGAUGGGAUUGGGGUUUUCCCCUCCCAUGUGCUCAAGACUGGCGCUAAAAGUUUUGAGCUUCUCAAAAGUCUAGAGCCACCGUCCAGGGAGCAGGUAGCUGCUGGGCUCCGGGGACACUUUGCGUUCGGGCUGGGAGCGUGCUUUCCACGACGGUGACACGCUUCCCUGGAUUGGCAGCCAGACUGCCUUCCGGGUCACUGCCAUGGAGGAGCCGCAGUCAGAUCCUAGCGUCGAGCCCCCUCUGAGUCAGGAAACAUUUUCAGACCUAUGGAAACUACUUCCUGAAAACAACGUUCUGUCCCCCUUGCCGUCCCAAGCAAUG [P0-Δ40p53 RNA]” the Kd was 63 nM.

— publication PMC8708005
